Legend:
IsdA.6xHis [1] = target: T1, IsdA.6xHis (Staphylococcus aureus, UniProt A6QG31 47-316); assay: SPR (Biacore), mAb captured by anti-human Fc, IsdA.6xHis injected, 37 C
T1 construct: also called IsdA-6× His; IsdA.6×His
T1 sequence: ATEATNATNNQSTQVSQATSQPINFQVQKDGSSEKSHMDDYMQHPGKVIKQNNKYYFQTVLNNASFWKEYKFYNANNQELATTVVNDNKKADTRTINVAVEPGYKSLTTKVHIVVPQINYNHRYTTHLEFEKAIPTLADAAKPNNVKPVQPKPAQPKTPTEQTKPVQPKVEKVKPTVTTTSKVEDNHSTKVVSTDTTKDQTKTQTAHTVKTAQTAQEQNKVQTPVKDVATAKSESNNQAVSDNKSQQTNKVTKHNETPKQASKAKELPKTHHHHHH
Experimental: (§1) The equilibrium dissociation constants (KD) to Protein A and IsdA.6×His reagents binding to purified anti-IsdA*/* and anti-Protein A*/* monoclonal antibodies were determined using a real-time surface plasmon resonance based Biacore T200 or Biacore 4000 biosensor. All binding studies were performed in 10 mM HEPES, 150 mM NaCl, 3.4 mM EDTA and 0.05% v/v Tween-20, pH 7.4 (HBS-EP) running buffer at 25° C. and 37° C. […] Proteins were injected over the captured anti-IsdA*/* and anti-Protein A*/* monoclonal antibody surface for 3-3.5 minutes at a flow rate of 30-50 μL/minute, while the dissociation of monoclonal antibody bound IsdA.6×His and Protein A reagent was monitored for 5-10 minutes in HBS-EP running buffer. The association rate (ka) and dissociation rate (kd) were determined by fitting the real-time binding sensorgrams to a 1:1 binding model with mass transport limitation using Scrubber 2.0c curve-fitting software. Binding dissociation equilibrium constant (KD) and dissociative half-life (t½) were calculated from the kinetic rates as:

IsdA.6xHis [2] = target: T1, IsdA.6xHis; assay: SPR (Biacore), mAb captured by anti-human Fc, IsdA.6xHis injected, 25 C
Experimental: as §1

B1: H1xH20334P2*/* (anti-IsdA) (antibody, V domains shown)
VH: EVQLVESGGGLVQPGRSLRVSCAASGFTFDDYAMHWVRQIPGKGLEWVSGIRWNSDTIGYADSVKGRFTISRDNAKNFLYLQMNSLRTEDTALYYCVKDMRVRGIIMYGMDVWGQGTTVTVSS
VL: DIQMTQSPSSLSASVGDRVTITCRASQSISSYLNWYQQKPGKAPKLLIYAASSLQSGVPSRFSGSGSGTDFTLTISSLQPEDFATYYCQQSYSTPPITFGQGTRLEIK
notes: also called anti-IsdA*/* monoclonal antibody
IsdA.6xHis [1]
  Kd: 3.49 nM
  koff: 0.00167 s⁻¹
  kon: 479000 M⁻¹ s⁻¹
  t½: 7 min
IsdA.6xHis [2]
  Kd: 1.28 nM
  koff: 0.000446 s⁻¹
  kon: 348000 M⁻¹ s⁻¹
  t½: 26 min
